Data on three molecules can be found in patent US20260166140A1, “Combinations Involving Epidermal Growth Factor Receptor Tyrosine Kinase Inhibitors For the Treatment of Cancer” (AstraZeneca AB, priority 2022, published 2026).

In experiment [1] the test system is MEDI-PANC-08^LUC PDX model. The experiment can be described thus: Orthotopic luciferase expressing pancreatic PDX model efficacy. The class given is in vivo, mice. The following applies: orthotopic MEDI-PANC-08^LUC; RAA2/B09 ADC 2 and 3 mg/kg Q1W×4; Gemcitabine 75 mg/kg; isotype control 3 mg/kg Q1W×4.
Procedure: The luciferase expressing PDX model (MEDI-PANC-08^LUC) was grown subcutaneously in NSG seed mice and at a volume of 800-1200 mm^3 the tumors were harvested and cut into fragments of approximately 2 mm^3. The tumor fragments were subsequently sutured to the pancreas of NSG mice (Day Zero). Luciferase signal was determined weekly using the IVIS Spectrum In vivo Imaging system. Briefly, 10 minutes prior to imaging, 200 ul of luciferin dissolved in DPBS (15 mg/ml) was injected intra-peritoneally (i.p.). The mice were anesthetized under 3% isoflurane, laid on their right side and luminescence measured. Fourteen days after tumor implant, when luminescent signal was clearly detectable, the mice were randomized into their respective groups based on the luminescence. […] Luminescence was measured weekly. Study endpoints included body weight loss, deterioration of body condition and lethargy. Data were analyzed using the Living Image software (Perkin Elmer) and plotted as Average Radiance [p/s/cm2/sr] against time.
Experiment [2] has as its target Cynomolgus monkey EGFR. Nature of the experiment: SPR (BIAcore T200) antibody capture kinetics. The class given is binding. How it is done: (§1) Mouse anti-human IgG was immobilized on a CM4 sensor chip with a final surface density of ˜2000 resonance units (RUs). A reference flow cell surface was also prepared on this sensor chip using identical immobilization protocol. Test and control article antibodies were prepared at 5-20 nM in instrument buffer (HBS-EP buffer; 0.01M HEPES, pH 7.4, 0.15M NaCl, 3 mM EDTA, and 0.005% P-20), along with 3-fold serial dilutions of purified EGFR (0.27-200 nM human, 0.4-900 nM cyno, and 4-1000 nM murine) or cMET proteins (0.27 to 66 nM human and 0.27-22 nM cyno) in instrument buffer. A sequential approach was utilized for kinetic measurements. Antibodies were first injected over the capture surface, at a flow rate of 10 μL/minute. Once the binding of the captured antibody stabilized, a single concentration of the analyte was injected over both capture and reference surfaces, at a flow rate of 75 μL/minute. The resulting binding response curves yielded the association phase data. Following the injection of analyte, the flow was then switched back to instrument buffer for 15 minutes to permit the collection of dissociation phase data, followed by a 1-minute pulse of 10 mM glycine, pH 1.5, to regenerate the antibody-captured surface on the chip. Binding responses against test and control article antibodies were recorded from duplicate injections of each concentration of analyte. In addition, several buffer injections were interspersed throughout the injection series. Select buffer injections were used along with the reference cell responses to correct the raw data sets for injection artifacts and/or nonspecific binding interactions, commonly referred to as “double referencing”. Corrected binding data were globally fit to a 1:1 binding model (Biacore T200 Evaluation software 2.0, GE Healthcare, Pittsburgh, PA).
(In general: SPR reads the build-up and loss of mass on a sensor chip optically.)

Experiment [3] relates to Cynomolgus monkey cMET. The experiment can be described thus: SPR (BIAcore T200) antibody capture kinetics. The class given is binding. The protocol:
as §1

For experiment [4], the target named is T1, Human EGFR (Homo sapiens, UniProt P00533). Nature of the experiment: SPR (BIAcore T200) antibody capture kinetics. Type of experiment: binding. The protocol:
as §1

The target of experiment [5] is T2, Human cMET (Homo sapiens, UniProt P08581). The experiment can be described thus: SPR (BIAcore T200) antibody capture kinetics. Type of experiment: binding. The protocol: as §1
T2 sequence (P08581 25-932): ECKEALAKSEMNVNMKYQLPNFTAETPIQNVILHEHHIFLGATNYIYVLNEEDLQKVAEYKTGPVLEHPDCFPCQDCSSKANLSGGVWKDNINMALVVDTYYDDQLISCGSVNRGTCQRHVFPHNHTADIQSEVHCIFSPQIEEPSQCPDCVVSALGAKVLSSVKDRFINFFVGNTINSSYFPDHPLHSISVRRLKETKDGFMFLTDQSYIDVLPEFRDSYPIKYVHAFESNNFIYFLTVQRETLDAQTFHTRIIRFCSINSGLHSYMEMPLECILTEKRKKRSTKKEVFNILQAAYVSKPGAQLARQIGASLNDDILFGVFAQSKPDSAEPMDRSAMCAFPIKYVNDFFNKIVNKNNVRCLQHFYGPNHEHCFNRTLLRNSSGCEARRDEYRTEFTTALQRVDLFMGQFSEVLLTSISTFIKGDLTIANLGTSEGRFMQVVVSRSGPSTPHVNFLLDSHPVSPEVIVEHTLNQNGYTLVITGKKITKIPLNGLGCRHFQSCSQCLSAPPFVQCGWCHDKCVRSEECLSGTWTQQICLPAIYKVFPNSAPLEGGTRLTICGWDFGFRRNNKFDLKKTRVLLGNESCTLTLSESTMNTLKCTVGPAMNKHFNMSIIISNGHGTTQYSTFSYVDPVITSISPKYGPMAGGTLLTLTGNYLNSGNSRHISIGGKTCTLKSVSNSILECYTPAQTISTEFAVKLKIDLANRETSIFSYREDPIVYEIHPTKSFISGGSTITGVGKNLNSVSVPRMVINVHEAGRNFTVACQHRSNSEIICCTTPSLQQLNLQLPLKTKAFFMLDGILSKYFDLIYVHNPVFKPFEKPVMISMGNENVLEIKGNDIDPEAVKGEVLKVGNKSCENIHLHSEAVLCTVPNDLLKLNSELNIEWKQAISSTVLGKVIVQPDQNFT
Experiment [6] has as its target T3, Mouse EGFR (Mus musculus, UniProt Q01279).
T3 construct: purchased SinoBiological 51091-M08H
The experiment can be described thus: SPR (BIAcore T200) antibody capture kinetics. The class given is binding. The protocol: as §1

In the next experiment the target is T4, Mouse cMET (Mus musculus, UniProt P16056).
T4 construct: purchased SinoBiological 50622-M08H
T4 sequence (P16056 25-929 limits assumed): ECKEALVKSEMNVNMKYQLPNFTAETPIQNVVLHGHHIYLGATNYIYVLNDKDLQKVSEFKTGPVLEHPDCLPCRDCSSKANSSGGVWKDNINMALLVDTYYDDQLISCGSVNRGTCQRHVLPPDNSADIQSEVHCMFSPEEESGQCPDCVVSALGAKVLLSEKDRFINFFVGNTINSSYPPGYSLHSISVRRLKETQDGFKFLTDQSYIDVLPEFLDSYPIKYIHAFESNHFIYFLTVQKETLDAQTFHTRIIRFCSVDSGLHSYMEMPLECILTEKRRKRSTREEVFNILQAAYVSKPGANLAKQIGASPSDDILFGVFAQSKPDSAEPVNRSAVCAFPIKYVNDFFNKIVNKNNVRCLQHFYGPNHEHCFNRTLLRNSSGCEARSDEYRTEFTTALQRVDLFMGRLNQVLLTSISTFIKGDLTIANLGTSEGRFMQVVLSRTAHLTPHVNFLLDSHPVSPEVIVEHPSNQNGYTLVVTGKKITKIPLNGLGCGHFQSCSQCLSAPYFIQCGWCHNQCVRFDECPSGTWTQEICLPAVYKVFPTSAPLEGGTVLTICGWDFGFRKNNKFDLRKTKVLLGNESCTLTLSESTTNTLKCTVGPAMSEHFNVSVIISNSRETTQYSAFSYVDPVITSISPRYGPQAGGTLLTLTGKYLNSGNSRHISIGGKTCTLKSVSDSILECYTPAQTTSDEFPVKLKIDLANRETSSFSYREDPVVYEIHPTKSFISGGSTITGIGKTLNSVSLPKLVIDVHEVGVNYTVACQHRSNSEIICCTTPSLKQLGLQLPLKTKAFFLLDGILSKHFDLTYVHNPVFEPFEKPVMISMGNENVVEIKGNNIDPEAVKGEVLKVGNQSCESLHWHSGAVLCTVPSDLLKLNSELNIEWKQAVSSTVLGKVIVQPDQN
Nature of the experiment: SPR (BIAcore T200) antibody capture kinetics. The class given is binding. The protocol: as §1

The subject of experiment [7] is Cynomolgus monkey cMET. The experiment can be described thus: ELISA species cross reactivity. Type of experiment: binding. The protocol:
(§2) Specificity for EGFR and cMET species paralogs and closely related family members was determined by ELISA. Briefly, antigen solutions were prepared in PBS at 1 μg/mL and 50 microliters was coated onto half area ELISA assay plates. Plates were washed and blocked with 1% BSA in PBS containing 0.005% Tween-20 (PBS-T) for one hour at room temperature. The wells were washed 4 times in PBS-T. As set out in FIG. 3, the primary antibodies used where: R374 (a non-binding IgG1 isotype control antibody), B09 (anti-cMET antibody), QD6 (anti-EGFR antibody), RAA22 (anti-EGFR antibody), QD6/B09 (bispecific EGFR/c-MET DuetMAb), RAA22/B09 (bispecific EGFR/c-MET DuetMAb), PaniX (anti-EGFR antibody), MetMab (anti-cMET antibody) and Mab11311 (anti-HER4 antibody). Wells were incubated with 50 microliters of the indicated primary antibodies diluted in PBS-T in a 1:3 dilution series, starting at 10 μg/mL and ending at 0.002 μg/mL, except for the HER4 binding mAb control, MAB1131, for which the series started at 1 μg/mL. The wells were washed 4 times in PBS-T, then 50 μl of goat anti-human Fab HRP-labeled secondary antibody, diluted 1:5000 in PBS-T, was added to each well and incubated for one hour at room temperature. […] 50 microliters of TMB stop solution was added to all wells and the absorbance was read at 450 nm on a SpectraMax M5 microplate reader. Data were analyzed in the SoftMax Pro 5 software and plotted using GraphPad Prism 7 graphing software.
(§3) To determine the species cross reactivity, ELISA assays were carried out as described above. […] There was no detectable binding of any of the antibodies to mouse cMET.

The target of experiment [8] is T2, Human cMET. Nature of the experiment: ELISA species cross reactivity. Type of experiment: binding. How it is done: as §2, §3
(In general: An ELISA detects its analyte on a solid surface through an enzyme-linked reagent.)

A further experiment concerns the target Ron (CD136) (Homo sapiens, UniProt Q04912). Nature of the experiment: ELISA family specificity. The class given is binding. The protocol: as §2
Another experiment has as its system Semaphorin 3a. Nature of the experiment: ELISA family specificity. Type of experiment: binding. The protocol: as §2
The target in experiment [9] is human cMET receptor with the HGF ligand (Homo sapiens, UniProt P08581). The experiment can be described thus: HGF:cMET HTRF ligand receptor inhibitory binding assay. The settings on record: purified IgG2 antibodies. An excerpt:
cMET-specific scFv antibodies were isolated from a large naïve human scFv phage display library in a series of repeated panning selection cycles on recombinant mammalian expressed biotinylated monomeric human cMET (MedImmune) essentially as described (Vaughan, 1996). ScFvs from the round 2 of the selection output were expressed in the bacterial periplasm and screened for their ability to inhibit the binding of the human cMET receptor with the HGF ligand in a HGF:cMET HTRF® (Homogeneous Time-Resolved Fluorescence) ligand receptor inhibitory binding assay. […] Unique genes were then converted to human immunoglobulin G2 (IgG2) antibodies and produced in mammalian cells essentially as described (Persic; 1997). The purified antibodies were then ranked based on their inhibitory effect in the HGF:cMET HTRF® binding assay.
To minimize potential immunogenicity, non-Vernier framework residues (Foote and Winter 1992) in the variable framework regions of 0021U3-B09 were targeted specifically and altered to match the closest human germline sequence. In the VH region, seven amino acid residues were mutated to match the reference human germline sequence IGHV1-8*01. In the VL region, three residues were mutated to match the reference human germline sequence IGKV1-5*03. All residues in VH and VL regions were successfully changed to the germline residues without loss of activity. […]
In general terms: In TR-FRET formats the signal depends on donor and acceptor labels being close together.

For experiment [10], the system named is Cynomolgus monkey EGFR. Nature of the experiment: ELISA species cross reactivity. The class given is binding. The protocol: as §2, §3
In experiment [11] the target is T1, Human EGFR. Nature of the experiment: ELISA species cross reactivity. The class given is binding. The settings on record: antibody 10 to 0.002 μg/mL. The protocol: as §2, §3
Experiment [12] has as its target T3, Mouse EGFR. Nature of the experiment: ELISA species cross reactivity. The class given is binding. How it is done: as §2, §3
Another experiment concerns the target HER2 (Homo sapiens, UniProt P04626). The experiment can be described thus: ELISA family specificity. Type of experiment: binding. How it is done:
as §2

For another experiment, the target named is HER3 (Homo sapiens, UniProt P21860). Nature of the experiment: ELISA family specificity. The class given is binding. The protocol: as §2
For a further experiment, the target named is HER4 (Homo sapiens, UniProt Q15303). Nature of the experiment: ELISA family specificity. Type of experiment: binding. The protocol:
as §2

Chain of Cynomolgus monkey cMET (as listed by the source): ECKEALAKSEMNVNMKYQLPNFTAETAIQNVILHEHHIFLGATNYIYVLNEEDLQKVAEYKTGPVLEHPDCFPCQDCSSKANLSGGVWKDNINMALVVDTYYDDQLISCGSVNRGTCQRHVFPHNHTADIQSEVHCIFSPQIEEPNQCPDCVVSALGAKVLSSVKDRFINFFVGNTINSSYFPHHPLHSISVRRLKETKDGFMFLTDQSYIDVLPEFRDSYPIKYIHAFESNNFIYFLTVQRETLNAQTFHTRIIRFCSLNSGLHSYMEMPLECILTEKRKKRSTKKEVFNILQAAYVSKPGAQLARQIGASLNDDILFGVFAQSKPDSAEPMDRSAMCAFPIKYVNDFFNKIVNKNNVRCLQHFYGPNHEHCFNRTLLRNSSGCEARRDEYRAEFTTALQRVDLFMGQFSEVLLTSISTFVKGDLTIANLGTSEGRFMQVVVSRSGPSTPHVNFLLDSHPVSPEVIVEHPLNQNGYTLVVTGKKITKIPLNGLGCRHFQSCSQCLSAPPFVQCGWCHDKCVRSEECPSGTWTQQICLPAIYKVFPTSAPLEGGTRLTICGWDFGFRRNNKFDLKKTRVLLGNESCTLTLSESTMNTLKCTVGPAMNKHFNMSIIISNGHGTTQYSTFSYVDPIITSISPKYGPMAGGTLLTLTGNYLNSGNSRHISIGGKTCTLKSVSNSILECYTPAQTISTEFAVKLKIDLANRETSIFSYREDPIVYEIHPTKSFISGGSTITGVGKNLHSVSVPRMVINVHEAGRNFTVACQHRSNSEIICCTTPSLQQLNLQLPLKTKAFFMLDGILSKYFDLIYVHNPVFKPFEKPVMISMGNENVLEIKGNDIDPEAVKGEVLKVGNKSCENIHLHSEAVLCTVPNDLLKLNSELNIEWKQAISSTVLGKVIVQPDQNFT
Chain of HER4 (Q15303 26-1308, species assumed): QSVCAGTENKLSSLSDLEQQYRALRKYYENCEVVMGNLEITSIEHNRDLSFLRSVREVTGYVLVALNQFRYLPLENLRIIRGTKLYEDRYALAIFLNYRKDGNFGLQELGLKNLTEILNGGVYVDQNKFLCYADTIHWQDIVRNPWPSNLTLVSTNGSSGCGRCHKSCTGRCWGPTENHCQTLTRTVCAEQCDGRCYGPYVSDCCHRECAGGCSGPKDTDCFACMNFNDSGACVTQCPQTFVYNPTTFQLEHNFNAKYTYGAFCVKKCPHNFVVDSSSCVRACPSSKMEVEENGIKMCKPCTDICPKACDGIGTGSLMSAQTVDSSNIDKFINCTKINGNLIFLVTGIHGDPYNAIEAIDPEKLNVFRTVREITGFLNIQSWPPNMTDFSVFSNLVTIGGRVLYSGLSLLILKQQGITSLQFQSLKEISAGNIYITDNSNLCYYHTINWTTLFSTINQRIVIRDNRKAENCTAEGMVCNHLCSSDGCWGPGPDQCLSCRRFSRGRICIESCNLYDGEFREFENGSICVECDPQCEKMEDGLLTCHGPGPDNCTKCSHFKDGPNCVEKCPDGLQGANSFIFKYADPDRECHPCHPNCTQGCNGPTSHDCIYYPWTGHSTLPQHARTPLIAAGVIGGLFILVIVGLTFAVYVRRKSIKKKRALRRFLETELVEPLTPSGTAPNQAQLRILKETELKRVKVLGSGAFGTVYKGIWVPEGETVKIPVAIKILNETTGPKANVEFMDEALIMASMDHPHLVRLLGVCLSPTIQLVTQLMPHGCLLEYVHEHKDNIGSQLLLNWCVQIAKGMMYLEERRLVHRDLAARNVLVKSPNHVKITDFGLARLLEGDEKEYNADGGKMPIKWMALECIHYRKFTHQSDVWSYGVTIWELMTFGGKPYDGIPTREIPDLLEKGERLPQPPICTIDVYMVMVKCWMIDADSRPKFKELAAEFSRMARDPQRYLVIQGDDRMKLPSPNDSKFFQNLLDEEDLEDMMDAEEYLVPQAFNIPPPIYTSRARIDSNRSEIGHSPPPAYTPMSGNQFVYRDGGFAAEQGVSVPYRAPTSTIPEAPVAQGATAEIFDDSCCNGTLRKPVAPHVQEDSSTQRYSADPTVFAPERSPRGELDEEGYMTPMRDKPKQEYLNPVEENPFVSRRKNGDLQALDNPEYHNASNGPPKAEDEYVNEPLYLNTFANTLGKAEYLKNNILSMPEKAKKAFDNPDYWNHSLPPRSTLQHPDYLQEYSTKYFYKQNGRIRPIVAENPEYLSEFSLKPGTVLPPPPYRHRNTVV
Chain of human cMET receptor with the HGF ligand (P08581 25-932 limits assumed): as the sequence (P08581 25-932) above

For the molecule `Nc1ccn([C@@H]2O[C@H](CO)[C@@H](O)C2(F)F)c(=O)n1` [Gemcitabine], the luminescent signal result in experiment [1] is listed as “initial reduction in the luminescent signal reaching a nadir around day 21, after which the signal increased over time”.

B1: B09-57 IgG: affinity optimized, germlined anti-cMET antibody derived from 0021U3-B09, VH SEQ ID NO: 38, VL SEQ ID NO: 40 (antibody, V domains shown)
VH: QVQLVQSGAEVKKPGASVKVSCKASGYTFTDYYIHWVRQATGQGLEWMGWMNPNSGNTGYAQKFQGRVTMTRDTSISTAYMELSSLRSEDTAVYYCARGQGYTHSWGQGTMVTVSS
VL: DIQMTQSPSTLSASVGDRVTITCRASEGIYHWLAWYQQKPGKAPKLLIYKASSLASGVPSRFSGSGSGTEFTLTISSLQPDDFATYYCQQYSNYPPTFGGGTKLEIK
B1: the KD entry at Cynomolgus monkey EGFR [2] (koff/kon), in the experiment with Human EGFR [4] (KD calculated as koff/kon), in the experiment with Mouse EGFR [6] (koff/kon) and in the experiment with Mouse cMET was “No binding detected at 200 nM” in each case. Further, the Koff in the experiment with Cynomolgus monkey cMET [3] (25° C.) is 0.00194 s⁻¹; with Human cMET [5] (25° C.) it was 0.000882 s⁻¹. Further, the Kon with Cynomolgus monkey cMET [3] (25° C.) came out at 1.04e+06 M⁻¹ s⁻¹; in the experiment with Human cMET [5] (25° C.) it was 563000 M⁻¹ s⁻¹. The ELISA binding entry in the experiment on Cynomolgus monkey cMET [7] is on record as “comparable binding”; in the experiment with Human cMET [8] it was “comparable binding”; with Ron (CD136), “no binding”; with Semaphorin 3a, “no binding”. The “rank by inhibitory effect in the HGF:cMET HTRF binding assay” value in experiment [9] is “most potent antibody”.

B2: RAA22 IgG: low affinity anti-EGFR IgG1 antibody clone, VH SEQ ID NO: 16, VL SEQ ID NO: 20 (antibody, V domains shown)
VH: QVQLVQSGAEVKKPGSSVKVSCKASGGTFSDNDFSWVRQAPGQGLEWMGAIVAVFRTETYAQKFQDRVKITADISTRTTYMELSSLRSEDTAVYYCARRLMSAISGPGAPLLMWGQGTLVTVSS
VL: QSALTQPRSVSGSPGQSVTISCTGTSSDVGGYNYVSWYQQHPGKAPKLMIYDVSKRPSGVPDRFSGSKSGNTASLTISGLQAEDEADYYCSSYTSSDTLEIFGGGTKLTVL
With B2, the Koff in the experiment with Cynomolgus monkey EGFR [2] (25° C.) was determined as 0.00601 s⁻¹; in the experiment with Human EGFR [4] (25° C.), 0.00206 s⁻¹; in the experiment with Mouse EGFR [6] (25° C.) it was 0.019 s⁻¹. Further, the Kon in the experiment with Cynomolgus monkey EGFR [2] (25° C.) came to 35400 M⁻¹ s⁻¹; with Human EGFR [4] (25° C., 1:1 binding model), 44100 M⁻¹ s⁻¹; with Mouse EGFR [6] (25° C.) it was 40300 M⁻¹ s⁻¹. In addition, the KD result at Cynomolgus monkey cMET [3] (koff/kon), with Human cMET [5] (koff/kon) and in the experiment with Mouse cMET was “No binding detected at 200 nM” in each case. The ELISA binding entry is reported as “bound more weakly” with Cynomolgus monkey EGFR [10]; “bound more weakly” with Human EGFR [11]; “weak, but detectable” with Mouse EGFR [12]; “no binding” with HER2; “no binding” with HER3; “no binding” with HER4.
